± gives the uncertainty stated by the source.
B1: Nuclear receptor subfamily 1 group D member 2, residues 103 to 171; numbered along this chain, Q14995 (parent)
chain: CKVCGDVASGFHYGVHACEGCKGFFRRSIQQNIQYKKCLKNENCSIMRMNRNRCQQCRFKKCLSVGMSR

Variants of: B1
Experiment: abundance fitness (aPCA) (normalised: wild type 0, dead -1); higher = more abundant; growth selection in yeast, the domain comes from the species named
Settings: Homo sapiens

In order of falling abundance fitness:
1. R58W  0.565 ± 0.11
2. R53E  0.412 ± 0.085
3. N52A  0.394 ± 0.25
4. R69M  0.318 ± 0.12
5. K37M  0.279 ± 0.17
6. K37P  0.27 ± 0.081
7. H16D  0.264 ± 0.098
8. R53A  0.248 ± 0.058
9. R27N  0.237 ± 0.32
10. H16E  0.219 ± 0.082
11. K40G  0.202 ± 0.042
12. Q31E  0.197 ± 0.1
13. V7K  0.167 ± 0.093
14. S45M  0.156 ± 0.21
15. M49Q  0.15 ± 0.18
16. R53P  0.142 ± 0.074
17. N52E  0.139 ± 0.26
18. K36S  0.137 ± 0.18
19. R48Q  0.134 ± 0.15
20. E42G  0.13 ± 0.063
21. Q30T  0.126 ± 0.17
22. R27D  0.126 ± 0.19
23. I46V  0.123 ± 0.12
24. S64Q  0.12 ± 0.089
25. R48I  0.117 ± 0.27
26. M49E  0.114 ± 0.12
27. K40T  0.1 ± 0.079
28. M49N  0.093 ± 0.36
29. R26T  0.092 ± 0.17
30. R27W  0.091 ± 0.23
31. K40F  0.09 ± 0.11
32. L39A  0.084 ± 0.075
33. V7E  0.057 ± 0.084
34. K60E  0.033 ± 0.12
35. L39N  0.018 ± 0.13
36. N43E  0.017 ± 0.086
37. K37S  0.011 ± 0.07
38. Q55L  -0.006 ± 0.061
39. N43G  -0.011 ± 0.071
40. C62A  -0.015 ± 0.2
41. S68T  -0.018 ± 0.13
42. K2R  -0.029 ± 0.071
43. I46A  -0.041 ± 0.13
44. S45Y  -0.045 ± 0.14
45. M47V  -0.051 ± 0.047
46. D6E  -0.06 ± 0.21
47. N43Q  -0.061 ± 0.12
48. M47R  -0.062 ± 0.074
49. I33L  -0.065 ± 0.049
50. S64M  -0.072 ± 0.11
51. Q56H  -0.09 ± 0.18
52. R51E  -0.091 ± 0.36
53. R26G  -0.092 ± 0.091
54. K60L  -0.097 ± 0.087
55. S68I  -0.111 ± 0.27
56. S45G  -0.119 ± 0.11
57. G10V  -0.119 ± 0.38
58. L63E  -0.121 ± 0.15
59. S68G  -0.125 ± 0.088
60. L39K  -0.128 ± 0.18
61. Q56V  -0.134 ± 0.067
62. R27L  -0.154 ± 0.13
63. V3S  -0.161 ± 0.46
64. N43V  -0.181 ± 0.091
65. Q56P  -0.205 ± 0.12
66. Q31S  -0.207 ± 0.12
67. N43T  -0.215 ± 0.12
68. N41A  -0.219 ± 0.085
69. V65Y  -0.234 ± 0.18
70. R26Y  -0.246 ± 0.24
71. H12Y  -0.253 ± 0.12
72. I46G  -0.258 ± 0.11
73. Q31M  -0.262 ± 0.15
74. R27K  -0.275 ± 0.21
75. Q31Y  -0.276 ± 0.18
76. Q31D  -0.278 ± 0.18
77. I29T  -0.282 ± 0.091
78. K60S  -0.284 ± 0.24
79. N41Q  -0.285 ± 0.16
80. Q31R  -0.289 ± 0.075
81. G14S  -0.291 ± 0.11
82. Q56K  -0.3 ± 0.064
83. N50V  -0.306 ± 0.1
84. R48F  -0.318 ± 0.41
85. Q55C  -0.324 ± 0.22
86. V15I  -0.327 ± 0.16
87. K61A  -0.328 ± 0.15
88. F25W  -0.332 ± 0.23
89. I33G  -0.338 ± 0.053
90. I29Q  -0.339 ± 0.1
91. N50S  -0.349 ± 0.088
92. I46S  -0.353 ± 0.16
93. N50R  -0.359 ± 0.073
94. S64N  -0.36 ± 0.14
95. K2I  -0.367 ± 0.16
96. K37R  -0.391 ± 0.1
97. N32K  -0.401 ± 0.11
98. R69D  -0.404 ± 0.26
99. K61E  -0.414 ± 0.16
100. R48C  -0.417 ± 0.23
101. F59E  -0.433 ± 0.27
102. N32M  -0.44 ± 0.14
103. K37L  -0.473 ± 0.11
104. K2V  -0.474 ± 0.1
105. G5Q  -0.476 ± 0.1
106. A8N  -0.476 ± 0.29
107. F25Y  -0.481 ± 0.39
108. G5K  -0.5 ± 0.11
109. L63V  -0.502 ± 0.2
110. K36I  -0.509 ± 0.48
111. S64Y  -0.512 ± 0.14
112. V7C  -0.526 ± 0.29
113. S68V  -0.526 ± 0.15
114. Y13V  -0.528 ± 0.087
115. Q55M  -0.53 ± 0.16
116. F59Q  -0.536 ± 0.41
117. C18M  -0.537 ± 0.42
118. C38V  -0.551 ± 0.11
119. C54A  -0.552 ± 0.095
120. I33Q  -0.553 ± 0.11
121. M67Y  -0.558 ± 0.42
122. K2C  -0.578 ± 0.23
123. C38S  -0.579 ± 0.075
124. E19S  -0.583 ± 0.18
125. N41M  -0.586 ± 0.17
126. G5P  -0.598 ± 0.11
127. C4T  -0.599 ± 0.27
128. N50M  -0.61 ± 0.15
129. N32C  -0.612 ± 0.2
130. Y13Q  -0.615 ± 0.13
131. Q31V  -0.623 ± 0.13
132. S45K  -0.646 ± 0.44
133. F25R  -0.646 ± 0.19
134. N41W  -0.664 ± 0.24
135. E42T  -0.671 ± 0.19
136. K2W  -0.673 ± 0.21
137. I29E  -0.675 ± 0.21
138. F25D  -0.696 ± 0.42
139. V65L  -0.708 ± 0.13
140. I33D  -0.708 ± 0.088
141. F24W  -0.723 ± 0.23
142. Y13M  -0.732 ± 0.16
143. V65Q  -0.733 ± 0.17
144. S28W  -0.733 ± 0.39
145. C57A  -0.738 ± 0.18
146. V65F  -0.739 ± 0.25
147. C54D  -0.749 ± 0.23
148. C54E  -0.77 ± 0.13
149. G5L  -0.787 ± 0.1
150. M67V  -0.794 ± 0.14
151. C38Q  -0.803 ± 0.45
152. R58I  -0.806 ± 0.49
153. E42F  -0.809 ± 0.29
154. C4S  -0.819 ± 0.21
155. I29G  -0.821 ± 0.13
156. G5R  -0.824 ± 0.083
157. F25P  -0.836 ± 0.41
158. C62P  -0.843 ± 0.38
159. S64P  -0.857 ± 0.19
160. C38E  -0.857 ± 0.27
161. D6K  -0.862 ± 0.33
162. C38F  -0.864 ± 0.28
163. A8R  -0.897 ± 0.1
164. F24R  -0.924 ± 0.19
165. C1G  -0.939 ± 0.26
166. L63R  -0.991 ± 0.25
167. F24I  -1.02 ± 0.42

Reference: the Human Domainome abundance scans (Beltran et al. 2025)
